The results in this text go back to patent US20260070987A1.

The Kd is the equilibrium constant for the complex coming apart.

B1: equine IgG1 T286P (antibody, part only; not given: variable domains, not shown: another chain or arm of the molecule)
constant: ASTTAPKVFALAPGCGTTSDSTVALGCLVSGYFPEPVKVSWNSGSLTSGVHTFPSVLQSSGFYSLSSMVTVPASTWTSETYICNVVHAASNFKVDKRIEPIPDNHQKVCDMSKCPKCPAPELLGGPSVFIFPPNPKDTLMITRTPEVTCVVVDVSQENPDVKFNWYMDGVEVRPATTRPKEEQFNSTYRVVSVLRIQHQDWLSGKEFKCKVNNQALPQPIERTITKTKGRSQEPQVYVLAPHPDELSKSKVSVTCLVKDFYPPEINIEWQSNGQPELETKYSTTQAQQDSDGSYFLYSKLSVDRNRWQQGTTFTCGVMHEALHNHYTQKNVSKNPGK
B2: equine IgG4 N434A (antibody, part only; not given: Variable domains, not shown: another chain or arm of the molecule)
constant: ASTTAPKVFPLASHSAATSGSTVALGCLVSSYFPEPVTVSWNSGALTSGVHTFPSVLQSSGLYSLSSMVTVPASSLKSQTYICNVAHPASSTKVDKKIVIKECNGGCPAECLQVGPSVFIFPPKPKDVLMISRTPTVTCVVVDVGHDFPDVQFNWYVDGVETHTATTEPKQEQFNSTYRVVSVLPIQHKDWLSGKEFKCKVNNKALPAPVERTISKPTGQPREPQVYVLAPHRDELSKNKVSVTCLVKDFYPTDIDIEWKSNGQPEPETKYSTTPAQLDSDGSYFLYSKLTVETNRWQQGTTFTCAVMHEALHAHYTEKSVSKSPGK
B3: equine IgG4 N434L (antibody, part only; not given: variable domains, not shown: another chain or arm of the molecule)
constant: ASTTAPKVFPLASHSAATSGSTVALGCLVSSYFPEPVTVSWNSGALTSGVHTFPSVLQSSGLYSLSSMVTVPASSLKSQTYICNVAHPASSTKVDKKIVIKECNGGCPAECLQVGPSVFIFPPKPKDVLMISRTPTVTCVVVDVGHDFPDVQFNWYVDGVETHTATTEPKQEQFNSTYRVVSVLPIQHKDWLSGKEFKCKVNNKALPAPVERTISKPTGQPREPQVYVLAPHRDELSKNKVSVTCLVKDFYPTDIDIEWKSNGQPEPETKYSTTPAQLDSDGSYFLYSKLTVETNRWQQGTTFTCAVMHEALHLHYTEKSVSKSPGK
B4: equine IgG4 N434I (antibody, part only; not given: variable domains, not shown: another chain or arm of the molecule)
constant: ASTTAPKVFPLASHSAATSGSTVALGCLVSSYFPEPVTVSWNSGALTSGVHTFPSVLQSSGLYSLSSMVTVPASSLKSQTYICNVAHPASSTKVDKKIVIKECNGGCPAECLQVGPSVFIFPPKPKDVLMISRTPTVTCVVVDVGHDFPDVQFNWYVDGVETHTATTEPKQEQFNSTYRVVSVLPIQHKDWLSGKEFKCKVNNKALPAPVERTISKPTGQPREPQVYVLAPHRDELSKNKVSVTCLVKDFYPTDIDIEWKSNGQPEPETKYSTTPAQLDSDGSYFLYSKLTVETNRWQQGTTFTCAVMHEALHIHYTEKSVSKSPGK
B5: equine IgG4 N434E (antibody, part only; not given: variable domains, not shown: another chain or arm of the molecule)
constant: ASTTAPKVFPLASHSAATSGSTVALGCLVSSYFPEPVTVSWNSGALTSGVHTFPSVLQSSGLYSLSSMVTVPASSLKSQTYICNVAHPASSTKVDKKIVIKECNGGCPAECLQVGPSVFIFPPKPKDVLMISRTPTVTCVVVDVGHDFPDVQFNWYVDGVETHTATTEPKQEQFNSTYRVVSVLPIQHKDWLSGKEFKCKVNNKALPAPVERTISKPTGQPREPQVYVLAPHRDELSKNKVSVTCLVKDFYPTDIDIEWKSNGQPEPETKYSTTPAQLDSDGSYFLYSKLTVETNRWQQGTTFTCAVMHEALHEHYTEKSVSKSPGK
B6: equine IgG4 N434H (antibody, part only; not given: Variable domains, not shown: another chain or arm of the molecule)
constant: ASTTAPKVFPLASHSAATSGSTVALGCLVSSYFPEPVTVSWNSGALTSGVHTFPSVLQSSGLYSLSSMVTVPASSLKSQTYICNVAHPASSTKVDKKIVIKECNGGCPAECLQVGPSVFIFPPKPKDVLMISRTPTVTCVVVDVGHDFPDVQFNWYVDGVETHTATTEPKQEQFNSTYRVVSVLPIQHKDWLSGKEFKCKVNNKALPAPVERTISKPTGQPREPQVYVLAPHRDELSKNKVSVTCLVKDFYPTDIDIEWKSNGQPEPETKYSTTPAQLDSDGSYFLYSKLTVETNRWQQGTTFTCAVMHEALHHHYTEKSVSKSPGK
B7: equine IgG4 N434K (antibody, part only; not given: variable domains, not shown: another chain or arm of the molecule)
constant: ASTTAPKVFPLASHSAATSGSTVALGCLVSSYFPEPVTVSWNSGALTSGVHTFPSVLQSSGLYSLSSMVTVPASSLKSQTYICNVAHPASSTKVDKKIVIKECNGGCPAECLQVGPSVFIFPPKPKDVLMISRTPTVTCVVVDVGHDFPDVQFNWYVDGVETHTATTEPKQEQFNSTYRVVSVLPIQHKDWLSGKEFKCKVNNKALPAPVERTISKPTGQPREPQVYVLAPHRDELSKNKVSVTCLVKDFYPTDIDIEWKSNGQPEPETKYSTTPAQLDSDGSYFLYSKLTVETNRWQQGTTFTCAVMHEALHKHYTEKSVSKSPGK
B8: equine IgG4 N434F (antibody, part only; not given: variable domains, not shown: another chain or arm of the molecule)
constant: ASTTAPKVFPLASHSAATSGSTVALGCLVSSYFPEPVTVSWNSGALTSGVHTFPSVLQSSGLYSLSSMVTVPASSLKSQTYICNVAHPASSTKVDKKIVIKECNGGCPAECLQVGPSVFIFPPKPKDVLMISRTPTVTCVVVDVGHDFPDVQFNWYVDGVETHTATTEPKQEQFNSTYRVVSVLPIQHKDWLSGKEFKCKVNNKALPAPVERTISKPTGQPREPQVYVLAPHRDELSKNKVSVTCLVKDFYPTDIDIEWKSNGQPEPETKYSTTPAQLDSDGSYFLYSKLTVETNRWQQGTTFTCAVMHEALHFHYTEKSVSKSPGK
B9: equine IgG4 N434G (antibody, part only; not given: variable domains, not shown: another chain or arm of the molecule)
constant: ASTTAPKVFPLASHSAATSGSTVALGCLVSSYFPEPVTVSWNSGALTSGVHTFPSVLQSSGLYSLSSMVTVPASSLKSQTYICNVAHPASSTKVDKKIVIKECNGGCPAECLQVGPSVFIFPPKPKDVLMISRTPTVTCVVVDVGHDFPDVQFNWYVDGVETHTATTEPKQEQFNSTYRVVSVLPIQHKDWLSGKEFKCKVNNKALPAPVERTISKPTGQPREPQVYVLAPHRDELSKNKVSVTCLVKDFYPTDIDIEWKSNGQPEPETKYSTTPAQLDSDGSYFLYSKLTVETNRWQQGTTFTCAVMHEALHGHYTEKSVSKSPGK
B10: equine IgG4 N434D (antibody, part only; not given: Variable domains, not shown: another chain or arm of the molecule)
constant: ASTTAPKVFPLASHSAATSGSTVALGCLVSSYFPEPVTVSWNSGALTSGVHTFPSVLQSSGLYSLSSMVTVPASSLKSQTYICNVAHPASSTKVDKKIVIKECNGGCPAECLQVGPSVFIFPPKPKDVLMISRTPTVTCVVVDVGHDFPDVQFNWYVDGVETHTATTEPKQEQFNSTYRVVSVLPIQHKDWLSGKEFKCKVNNKALPAPVERTISKPTGQPREPQVYVLAPHRDELSKNKVSVTCLVKDFYPTDIDIEWKSNGQPEPETKYSTTPAQLDSDGSYFLYSKLTVETNRWQQGTTFTCAVMHEALHDHYTEKSVSKSPGK
B11: equine IgG4 N434C (antibody, part only; not given: Variable domains, not shown: another chain or arm of the molecule)
constant: ASTTAPKVFPLASHSAATSGSTVALGCLVSSYFPEPVTVSWNSGALTSGVHTFPSVLQSSGLYSLSSMVTVPASSLKSQTYICNVAHPASSTKVDKKIVIKECNGGCPAECLQVGPSVFIFPPKPKDVLMISRTPTVTCVVVDVGHDFPDVQFNWYVDGVETHTATTEPKQEQFNSTYRVVSVLPIQHKDWLSGKEFKCKVNNKALPAPVERTISKPTGQPREPQVYVLAPHRDELSKNKVSVTCLVKDFYPTDIDIEWKSNGQPEPETKYSTTPAQLDSDGSYFLYSKLTVETNRWQQGTTFTCAVMHEALHCHYTEKSVSKSPGK

The target in the assay is equine FcRn (large alpha subunit p51) / equine beta-2-microglobulin complex, biotinylated (equine) (UniProt P30441). Kind of assay: SPR (Biacore), pH 6. On the technique in general: SPR reads the build-up and loss of mass on a sensor chip optically.
Chain of UniProt P30441 (P30441 21-118, one chain of several): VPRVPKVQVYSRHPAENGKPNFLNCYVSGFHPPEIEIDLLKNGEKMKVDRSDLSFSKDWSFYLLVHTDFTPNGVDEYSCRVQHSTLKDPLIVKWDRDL
On to B1, for which the Kd came to 14.6 nM. This counts as double-digit nanomolar. In the case of B2, the Kd was found to be 17.4 nM. B3: the Kd was 48.5 nM. The value for B4 was 40.6 nM; that for B5 was 71.3 nM.

B6 registered a Kd of 5.2 nM.

In the case of B7, the Kd is 42.8 nM. B8 gave a Kd of 4.4 nM. This Kd is about 9.7-fold lower than that of the molecule before.

For the molecule B9, the Kd turned out to be 21.2 nM. For B10 the value was 38.5 nM. The value for B11 was 113 nM.
